This is an account of results in US20180334480A1 (RAMOT AT TEL AVIV UNIVERSITY, published 2018).

The experiment has as its target human ACE2 protein (Angiotensin-Converting Enzyme 2) (human, UniProt Q9BYF1 18-740). Briefly: phage-displayed construct probed with ACE2.

human ACE2 protein (Angiotensin-Converting Enzyme 2), sequence (Q9BYF1 18-740 limits assumed): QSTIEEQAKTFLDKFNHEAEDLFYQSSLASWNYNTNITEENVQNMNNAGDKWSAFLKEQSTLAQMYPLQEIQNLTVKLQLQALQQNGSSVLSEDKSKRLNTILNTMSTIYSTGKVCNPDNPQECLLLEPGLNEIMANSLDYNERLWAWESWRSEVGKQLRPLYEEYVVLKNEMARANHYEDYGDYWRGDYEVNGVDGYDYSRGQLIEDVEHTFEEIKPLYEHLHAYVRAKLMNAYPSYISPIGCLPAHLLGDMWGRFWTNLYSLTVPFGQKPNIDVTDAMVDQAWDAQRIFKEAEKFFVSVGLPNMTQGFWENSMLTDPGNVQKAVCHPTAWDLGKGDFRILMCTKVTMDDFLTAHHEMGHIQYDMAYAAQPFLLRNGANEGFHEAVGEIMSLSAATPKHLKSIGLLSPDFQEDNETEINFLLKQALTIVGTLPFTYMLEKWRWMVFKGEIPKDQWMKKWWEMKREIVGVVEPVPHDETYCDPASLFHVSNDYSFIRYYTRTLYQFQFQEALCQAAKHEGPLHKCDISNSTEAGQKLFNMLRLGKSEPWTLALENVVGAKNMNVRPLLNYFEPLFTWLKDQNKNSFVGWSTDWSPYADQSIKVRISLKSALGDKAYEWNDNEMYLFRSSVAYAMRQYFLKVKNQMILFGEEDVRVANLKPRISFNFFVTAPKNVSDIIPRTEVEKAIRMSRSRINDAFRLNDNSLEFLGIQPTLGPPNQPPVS

B1: initial SARS CoV RBM construct (residues S432-T486) displayed on fth-1 phage (other)
chain: STGNYNYKYRYLRHGKLRPFERDISNVPFSPDGKPCTPPALNCYWPLNDYGFYTT
B1: the binding result is “no binding”.
